Assay results as given in paper doi:10.1101/2021.12.02.470928 (2021).

B1: PNUTS(1-148), PNUTS amino-terminal domain (PAD) (domain or fragment)
chain: MGSGPIDPKELLKGLDSFLNRDGEVKSVDGISKIFSLMKEARKMVSRCTYLNILLQTRSPEILVKFIDVGGYKLLNNWLTYSKTTNNIPLLQQILLTLQHLPLTVDHLKQNNTAKLVKQLSKSSEDEELRKLASVLVSDWMAVIRSQS

Assays:
Assay in all cases: BLI
[1] = molecular target: MYC(1-88 Q20A)
[2] = molecular target: MYC(1-88 V19A)
[3] = molecular target: MYC(1-88)-Q20A
[4] = molecular target: MYC(1-88)-V19A
[5] = molecular target: B1

Row | Kd [5] | Binder | other results
1 |  | B1 | Kd [1]: 5.3 µM; Kd [2]: 8.4 µM; Kd [3]: 5.3 µM; Kd [4]: 8.4 µM
2 | 19 µM | biotinylated MYC(1-88 F23A) (domain or fragment, biotin on the C-terminal AVI tag) MPLNVSFTNRNYDLDYDSVQPYAYCDEEENFYQQQQQSELQPPAPSEDIWKKFELLPTPPLSPSRRSGLCSPSYVAVTPFSLRGDNDG | 
3 | 24 µM | biotinylated MYC(1-88 Y22A) (domain or fragment, biotin on the C-terminal AVI tag) MPLNVSFTNRNYDLDYDSVQPAFYCDEEENFYQQQQQSELQPPAPSEDIWKKFELLPTPPLSPSRRSGLCSPSYVAVTPFSLRGDNDG | 
4 | 19 µM | biotinylated MYC(1-88 P21A) (domain or fragment, biotin on the C-terminal AVI tag) MPLNVSFTNRNYDLDYDSVQAYFYCDEEENFYQQQQQSELQPPAPSEDIWKKFELLPTPPLSPSRRSGLCSPSYVAVTPFSLRGDNDG | 
5 | 37 µM | biotinylated MYC(1-88 Y24A) (domain or fragment, biotin on the C-terminal AVI tag) MPLNVSFTNRNYDLDYDSVQPYFACDEEENFYQQQQQSELQPPAPSEDIWKKFELLPTPPLSPSRRSGLCSPSYVAVTPFSLRGDNDG | 
